In patent US20250283885A1, “MODULAR BIOSENSOR FOR RECEPTOR TYROSINE KINASE ACTIVITY” (The Trustees of Princeton University, priority 2024, published 2025):
One block for each molecule: values may come before it.

How the values were obtained:
FGFR1 = molecular target: T1, FGFR1 (Homo sapiens, UniProt P11362); experiment: FGFR1 pYtag in NIH 3T3 cells: clearance of cytosolic ZtSH2; type: cell-based; conditions: not in cells with ITAM-less FGFR1
T1 construct: expressed in transfected cells; host or cells: NIH 3T3 cells expressing iRFP-ZtSH2
Method: One advantage of the pYtag approach is its modularity: ITAMs can in principle be fused to the C-termini of many different RTKs and recruit ZtSH2 upon stimulation. Therefore, it was tested whether pYtags could be adapted to monitor the activity of receptors other than EGFR. pYtag biosensors were designed for two additional RTKs: 1) ErbB2, a ligandless member of the ErbB family that signals by heterodimerizing with ligand-bound EGFR; and 2) fibroblast growth factor receptor 1 (FGFR1), a non-ErbB family RTK. ErbB2 is a particularly challenging RTK to study because it can only be activated in conjunction with an additional RTK (e.g., EGFR), so Grb2-based biosensors would be unable to distinguish between the activity of EGFR and ErbB2.
Starting from NIH 3T3 cells expressing iRFP-ZtSH2, cell lines expressing either an ErbB2 pYtag (ErbB2-CD3ε-FusionRed), an FGFR1 pYtag (FGFR1-CD3ε-FusionRed), or ITAM-less variants of each were generated. For the ErbB2 case, cells with EGFR-Citrine were further transduced to express both required components of a functional receptor heterodimer (see FIG. 3, and FIGS. 4A-4B).
The pYtag approach is indeed modular, and this strategy can be readily adapted for monitoring the activation of distinct RTKs in individual cells.

EGFR = EGFR (Homo sapiens, UniProt P00533); experiment: EGFR pYtag live-cell imaging: clearance of cytosolic ZtSH2 in NIH 3T3 cells; conditions: varying doses, NIH 3T3 EGFR pYtag
Description: Six ITAMs from the CD3γ, CD3δ, CD3ε, and CD3ζ chains of the TCR. In each case, three identical repeats of the ITAM were fused to the C-terminal tail of EGFR followed by the FusionRed fluorescent protein (EGFR-ITAM-FusionRed). Each receptor was the co-expressed with an iRFP-labeled ZtSH2 (iRFP-ZtSH2) in NIH 3T3 fibroblasts, which express negligible levels of EGFR. […] Because ZtSH2 can in principle be recruited rapidly on and off the membrane and may localize to distinct subcellular compartments, it was reasoned that pYtags could be used to monitor the subcellular activity of an RTK in individual cells over time.

T1 sequence (P11362 22-822, species assumed): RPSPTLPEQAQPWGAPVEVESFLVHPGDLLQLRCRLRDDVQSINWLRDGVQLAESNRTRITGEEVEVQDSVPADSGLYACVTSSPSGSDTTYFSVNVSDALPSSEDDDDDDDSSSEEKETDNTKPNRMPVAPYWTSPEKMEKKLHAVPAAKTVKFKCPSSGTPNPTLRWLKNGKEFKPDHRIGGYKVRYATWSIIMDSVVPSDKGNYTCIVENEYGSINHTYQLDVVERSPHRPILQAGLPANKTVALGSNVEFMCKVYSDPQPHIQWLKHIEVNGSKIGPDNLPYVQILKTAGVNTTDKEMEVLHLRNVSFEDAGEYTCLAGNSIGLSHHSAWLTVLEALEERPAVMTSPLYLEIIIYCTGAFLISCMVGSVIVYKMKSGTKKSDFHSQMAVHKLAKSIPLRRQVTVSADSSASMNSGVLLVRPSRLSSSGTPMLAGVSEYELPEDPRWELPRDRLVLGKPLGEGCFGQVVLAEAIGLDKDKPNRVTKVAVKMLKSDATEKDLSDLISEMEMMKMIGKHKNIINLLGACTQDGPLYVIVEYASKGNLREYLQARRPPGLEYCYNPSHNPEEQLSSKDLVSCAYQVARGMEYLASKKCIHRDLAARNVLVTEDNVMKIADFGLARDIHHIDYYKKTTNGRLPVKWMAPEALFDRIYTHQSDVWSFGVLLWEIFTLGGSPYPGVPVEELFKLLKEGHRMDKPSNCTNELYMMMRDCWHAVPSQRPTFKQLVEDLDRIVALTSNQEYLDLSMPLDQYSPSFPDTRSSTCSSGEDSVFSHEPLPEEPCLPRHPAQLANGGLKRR

ZtSH2 response of FGFR1 pYtag-expressing cells (FGFR1): induced cytosolic clearance of ZtSH2
B1: FGF4: activating ligand used to stimulate FGFR1 pYtag-expressing cells (protein, UniProt P08620 31-206, looked up)
Fibroblast growth factor 4: APTAPNGTLEAELERRWESLVALSLARLPVAAQPKEAAVQSGAGDYLLGIKRLRRLYCNVGIGFHLQALPDGRIGGAHADTRDSLLELSPVERGVVSIFGVASRFFVAMSSKGKLYGSPFFTDECTFKEILLPNNYNAYESYKYPGMFIALSKNGKTKKGNRVSPTMKVTHFLPRL

B2: EPGN: epigen, low-affinity EGFR ligand (protein, UniProt Q6UW88 23-154, looked up)
Epigen: AAVTVTPPITAQQGNWTVNKTEADNIEGPIALKFSHLCLEDHNSYCINGACAFHHELEKAICRCFTGYTGERCEHLTLTSYAVDSYEKYIAIGIGVGLLLSGFLVIFYCYIRKRCLKLKSPYNVCSGERRPL
EGFR activity dynamics after low-affinity ligand (EGFR): rapid rise in EGFR activity followed by a plateau within minutes
